# According to paper PMC10278067:
# How the values were obtained:
# Assay in all cases: SPR; Biacore 8K; original LD3 and mutants immobilised on CM5 chip by amine coupling (500-1000 RU); Bcl-2 injected as analyte in serial 2-fold dilutions (from 2000 or 500 nM); HBS-EP+ pH 7.4, 150 mM NaCl; 1:1 Langmuir fit; three independent experiments
# [1] = target: LD3_v1 (L133A)
# [2] = target: LD3_v2 (I136A)
# [3] = target: LD3_v3 (D138A)
# [4] = target: LD3_v4 (F140A)
# [5] = target: LD3_v5 (K144A)
# Sequence of LD3_v5 (K144A) (P02649 other isoform, or with tags, fused parts or gaps K144A): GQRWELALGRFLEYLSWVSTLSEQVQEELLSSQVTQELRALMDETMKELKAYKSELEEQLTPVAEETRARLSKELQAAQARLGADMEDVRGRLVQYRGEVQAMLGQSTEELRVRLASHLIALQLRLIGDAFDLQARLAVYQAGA
# Sequence of LD3_v2 (I136A) (P02649 other isoform, or with tags, fused parts or gaps I136A): as the sequence (P02649 other isoform, or with tags, fused parts or gaps K144A) above, with I127A, A135K counted along it
# Sequence of LD3_v1 (L133A) (P02649 other isoform, or with tags, fused parts or gaps L133A): as the sequence (P02649 other isoform, or with tags, fused parts or gaps K144A) above, with L124A, A135K counted along it
# Sequence of LD3_v4 (F140A) (P02649 other isoform, or with tags, fused parts or gaps F140A): as the sequence (P02649 other isoform, or with tags, fused parts or gaps K144A) above, with F131A, A135K counted along it
# Sequence of LD3_v3 (D138A) (P02649 other isoform, or with tags, fused parts or gaps D138A): as the sequence (P02649 other isoform, or with tags, fused parts or gaps K144A) above, with D129A, A135K counted along it
substance,measurement,setting,value
B-cell lymphoma 2 (Bcl-2) protein (from UniProt P10415 1-239) (natural protein),Kd,[1],65.8 nM
same,koff,[1],0.00263 s⁻¹
same,kon,[1],40800 M⁻¹ s⁻¹
same,Kd,[2],0.74 nM
same,koff,[2],8.9e-05 s⁻¹
same,kon,[2],360000 M⁻¹ s⁻¹
same,Kd,[3],358 nM
same,koff,[3],0.0184 s⁻¹
same,kon,[3],154000 M⁻¹ s⁻¹
same,Kd,[4],27.3 nM
same,koff,[4],0.00197 s⁻¹
same,kon,[4],240000 M⁻¹ s⁻¹
same,Kd,[5],0.46 nM
same,koff,[5],6.6e-05 s⁻¹
same,kon,[5],455000 M⁻¹ s⁻¹
